According to paper PMC9169858 (Proceedings of the National Academy of Sciences of the …, 2022):

B1: NB1D10 (VHH)
VHH: QVQLQESGGGSVQAGGSLRLSCAVSGYSYCNYDLGWFRQAPGKEREGIATIDSDGNTYYVDSVKGRFTISQDNAKNTVALQMNSLKPEDTAMYYCKVGSIASSVPEVSCPPSAPFGYWGQGTQVTVSS
B2: NB2E3 (VHH)
VHH: QVQLQESGGGSVQAGGSLRLSCAVSGFIATSCALGWFRQAPGKEREGIATITTDGTTYYVDSVKGRFTISQDNAKNTVALQMNSLKPEDTAMYYCKLCCSGQYCAWGQGTQVTVSS

Molecular target: SARS-CoV-2 main protease (M^pro), pGEX4T-1 construct, GST removed by thrombin (SARS-CoV-2, Wuhan-Hu-1 (MN908947.3))
Assay: BLI
Conditions: both partners purified

Binder	binding result
B1	binds
B2	binds
